Test results taken from article doi:10.1101/2025.02.04.636395, “Identification of a RAB32-LRMDA-Commander membrane trafficking complex reveals the molecular mechanism of human oculocutaneous albinism type 7” (bioRxiv, 2025).

Target: T1, recombinant LRMDA (human, UniProt A0A087WWI0 1-226)
T1 construct: synthetic gene codon-optimised for S. frugiperda; also called tag-less LRMDA; purified LRMDA; source: Sf21 insect cells (baculovirus), purified (HaloLink resin, TEV cleavage); not shown: HaloTag, N-terminal, cleaved
T1 sequence (looked up): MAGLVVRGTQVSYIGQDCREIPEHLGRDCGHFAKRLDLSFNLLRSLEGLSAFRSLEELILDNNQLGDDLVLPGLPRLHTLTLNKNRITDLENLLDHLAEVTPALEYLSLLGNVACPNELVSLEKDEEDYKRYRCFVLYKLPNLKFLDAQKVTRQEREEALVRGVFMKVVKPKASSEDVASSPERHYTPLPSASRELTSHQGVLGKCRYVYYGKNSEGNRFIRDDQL
Test: pull-down; Retriever (0.5 µM, His-tagged VPS29) held on TALON resin; 1 µM LRMDA and/or 1 µM RAB32 added; 50 mM HEPES pH 7.2, 150 mM NaCl, 2 mM β-mercaptoethanol, 0.1% Triton X-100; 45 min at 4 °C; washes with 10 mM imidazole; LRMDA binding slightly increased in the presence of RAB32
Settings: both partners purified

B1: recombinant RAB32 (natural protein, human, UniProt Q13637 1-225, looked up)
chain: MAGGGAGDPGLGAAAAPAPETREHLFKVLVIGELGVGKTSIIKRYVHQLFSQHYRATIGVDFALKVLNWDSRTLVRLQLWDIAGQERFGNMTRVYYKEAVGAFVVFDISRSSTFEAVLKWKSDLDSKVHLPNGSPIPAVLLANKCDQNKDSSQSPSQVDQFCKEHGFAGWFETSAKDNINIEEAARFLVEKILVNHQSFPNEENDVDKIKLDQETLRAENKSQCC
notes: RAB32, human; synthetic gene codon-optimised for S. frugiperda; also called tag-less RAB32; purified RAB32; source: Sf21 insect cells (baculovirus), purified (Glutathione Sepharose, TEV cleavage); not shown: GST, N-terminal, cleaved
  binding result: binds
